This passage reports protein production results from a protein production outcome set (Wang et al. 2014).
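Further: failed if final PepcDB status was selected cloned or expressed and not failed if soluble or beyond.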

The nature of this series: label from the status in PepcDB records.
“MAASFAFLRDVRPYKTSWRVQVKVLHSWCQYTNMTGETLKLVLVNSQGVKIHASVKKDLVSKYVNNLPLNEWTFIETFALNHASGQFRPTGHLYKMSFVTGTQVIRCDS”: the protein production result was “not failed”. The value for “MTTIAVLGNGRVGGNLATALTRAGHEVTVADRTPGAAADTARTAQIVINATPGAGSLDRLAALRDELRDKILVDVSNATNDGPDGLPADLIYPGSSLAEHLQEALPETRVVKTLNTMLFPVMTAPATLTQTPTAFLSGEDPQAKQTVRELLTDLGWHKEWIADLGGIQTARATEAAILFVPHVIGATGFTPFAISIARLEHHHHHH” was “not failed”; that for “MEQLIFKQTYKKIEPFILLLNGLLLAAAISIVHIVGMHAYHLFEAASSNVPLITLAFGISAVLSSVAIWLTSRFTLPIFRLILSSVIMGIGISASYYVSMLGWNIDIYKKDYTSFLILFSVLIAMSGSGLAFLLAYKLKESERHRISLKLAFAVMMTLSIMGMHYTALISTNITDKFVSQYQAEHDLLLFTIILVTCLVLVASFIVAVLEQRLNQRNLELRKANKELANLSIQDNLTKLPNRLYLVDYAEVLLSDHRYKDQKIAFLYIDLDRFKSVNDAFGHHIGDQLLIQMANRLHWQLNEKCKLLRIGGDEFLLIAENTDTEEAMQLAEKVLHLIQDSYQISGKEINISASLGIALFPEHGQNVQDLLMNADAAMLMSKEQGRNTYTVFSYSTHQQETRSQSKLINDLYKAVEEKQFVLYYQPKFNTNLEICGVEALIRWNHPSLGMLTPHMFIGGAEKTGLIIPMGYWALEQACQQIQEWERSNTQFYPIAVNLSALQFENKKLFSTLEGLLKKYQIQPHHLIIEITESTAMRHIDLSIRACERLRDMGIRVAIDDFGTGHSSFLYLKDLPVDELKIDRGFIVDLKPGSKEEVILESIIHLAKKLGLTVTAEGVETQQQVEILTRLGCQQFQGYLLGMPVNVGQLIQSQGAHFV” was “failed”. For “MCLAIPSVVIDIFEEDGEKYALAEYKGVKQKAKLALIEGVEIGDYVLIHTGYALEKMSEDEAKLSLDAWEELFDVLDEM”, the protein production result was “failed”. As for “MIYPDETMLYAPVEWHDCSEGYTDIRYEKSTDGIAKITINRPQVRNAFRPLTVKEMIQALADARYDDNVGVIILTGEGDKAFCAGGDQKVRGDYGGYQDDSGVHHLNVLDFQRQIRTCPKPVVAMVAGYSIGGGHVLHMMCDLTIAAENAIFGQTGPKVGSFDGGWGASYMARIVGQKKAREIWFLCRQYDAQQALDMGLVNTVVPLADLEKETVRWCREMLQNSPMALRCLKAALNADCDGQAGLQELAGNATMLFYMTEEGQEGRNAFNQKRQPDFSKFKRNP”, the protein production entry was “not failed”. In the case of “MGFLESFVSFIVYLASTCGYVGIFILNMLEYACLPFPSEIVLPAIGASVASGKYSMIYALPISVIGGVVGTLISYSVGMYAGKKVISFAKRKHKKSKSIFEKIDRLFSRYGKITVFLARLLPFTRTYISLFAGAEKVNKIMFVIFSALGITIMDSFYLLLGYFAYDNKSFIEKALRHYSIGLIIIIVIAIFSYYIYKNLKLKKLKKEN” it was “failed”. As to “MAKNAPRFVCQACGAVYPRWMGRCEACGEWNSIAEEAPAEALPKGQTGGRGGQRLSFVSLEGVGAPPPRLLTGIPELDRVAGGGLVAGSALLIGGDPGIGKSTLLLQAVAGLARGGARSVYISGEEAIDQVRLRALRLGLEKAPVDLAAATSVRDIVATLDSGEPPDVVVIDSIQTMYLDTLDSAPGTVAQVRAGSHELIRLAKRRGFVLFLVGHVTKEGQMAGPRVMEHMVDAVIYFEGERGHPFRILRAVKNRFGATDEIGVFEMSDAGLSEVPNPSALFLAERRGNVTGSCVFAGMEGTRPMLVEIQALVGPSAPGSARRAVVGWDGGRLAMVMAVLETRCGLALGGNDVYLNVAGGLRIGEPAADLAVAAALVSSFSGVPVPPDMVVFGEIGLSGEIRAVAHGDTRLKEAAKLGFDQALMPARPRDSGKRGGPGVKEGLRMREIGHLQDLVALLAPPENAGQGQRLEHHHHHH”, the protein production entry is listed as “not failed”. In the case of “MLLNKYFLANRNINFIVMALLFSSSYISASSFISGPSAVYKYGLSFILLATIQIPTTLIVFIIVGQRLNRESKKINAINIIDYIRHRYESDFLALMSGFVLIFFSMFLISAQLIGGAKLIEVFWGIDYVVGLTFFAFLVFIYVFFGGFKAVAYTDLIQGFLMLVSSVILFSKMLDLGGGINNLFKTATSSLDKSLLLPSNADLKPQYIISFWILIGIGILGQPQIINNFIAFKDENAIKFSLPISTFIISFLIVLMHLIGFFAIILFPDLSPNDKVVLNVALKVLNPFSCFMFFIGLLSAIMSTVDSNLLLITSVLIKSIFIYKEDLKEDVKIGRIIMISNIFFILIILIFSLFPPNFLFFINIFAFGALEVSFFPIIVFGLYLNFVSKIAAFASMFLGLIFYLSILFFGLNIWFFHPVFPSFFVSIFTFLVVNFFCKKNSKVC” it was “failed”; in that of “MAPTIRLPFRRTLALLASATILAQTGMSGIAFAQTSPETAVPGVAAPVPAAPTPPASTPQQTPPVQTVVPTNGPASVADLAEGLLDAVVNISTSQNVKDDEGVGPAPRAPDGSPFQEFFNDFFNKKQGNKGPNHNVSSLGSGFVIDPAGYIVTNNHVIEGADDIEVNFANGSKLKAKLIGTDTKTDLSVLKVEPKTPLKSVKFGDSSEMRIGDWVMAIGNPFGFGGSVTVGIISGRGRNINAGPYDNFIQTDAAINKGNSGGPLFNMKGEVIGINTAIISPSGGSIGIGFSVPSELASGVVEQLRQYGETRRGWLGVRIQPVTDDIADSLGLDTAKGALVAGVIKGGPVDDGSIKAGDVILKFDGKTVNEMRDLPRVVAESTVGKEVDVVVLRDGKEQTVKVKLGRLEDSDQAASGDASPDGSQDGVITPDPDENDDMDQPDTGDQVAPAPGAPAPDQHQQGQVSPDAATPKNVLGLSLSLLSPETRKAFGIAESVDGVVVTEVEPGSASAEKGLKPGDVIVEVAQEFMKSPDAVAAKVKSLKQEGRRNAQLMIASANGDLRFVAVPME”, “failed”; in that of “MSKRILFIVGSFSEGSFNRQLAKKAETIIGDRAQVSYLSYDRVPFFNQDLETSVHPEVAHAREEVQEADAIWIFSPVYNYAIPGPVKNLLDWLSRSLDLSDPTGPSVLQDKIVTVSSVANGASPEEVFEDYRSLLPFIRMHLVDQLTGVPINSEAWSTGILKVSAEKLAELSAQADALLSAVENLEHHHHHH”, “not failed”.

Turning to “MLPIWFLIVIILKSVEFVITSFFLRDISKEMIFFSDLLGRIIVIIFYVLPIATYISVMFSQFLYLFIIHIFLYIICFMAFVSSALRIKRCIH”, the protein production entry is on record as “failed”.

“MGMDLRVVPAEEWLNRGIDSSHDGEHDLGLMVTDFLETGGGSGGAGSWCSSDSDSGFPDPSYLSDKIQYLKYSMAQHETEVLSVVRTLMLTIKEKDLHSVKSGTCNASCIRFYLAKLLRLSGYDAAVCSARWQGGGKVPGGDNEYIDIILSDTEVGQDDRLIVDIDFRSHFEIARAVDSYQRIMESLPVVYVGTVARLNQFLQVMVDAAKFSLKQNSMPLPPWRSLNYLRSKWHSPHKRHLGPIDQQGPGMFSPGLHGQCAENLKRLQFALQVEQEAERFMKKKSGFSRRN”: the protein production entry was “failed”. As to “MTAKPAVVGGFILGALALGVAAIVLFGGQRLFTSTREVVVFFNESVAGLQVGAPVTFHGVPVGTVKTIALRVSTRDLSARIPVVLELQPDQISWEGEHLNGDDDTYQRLIAAGLRAQLAPQSIVTGQMRVDLDFKPGTSAALSGEPTDLPEIPAVASDLDELRDKVTELPLRDLVETAQKTLANVQALTSSLNTRIPTLTTSAEQSVAVATQTLVTTQEAVRQIQADASVTLKELSDLLADLHRQVDARGGELGKTLSAAERTARQAESLMISLNELAGPRARFRADLEAAARDLSASASSTRSFTRTLERDPSALLSGDTKR”, the protein production result is “failed”. As to “MSNKIITLEINLEPSDNHRLASLCGPFDDNIKHLERRLGVEINYRGNFFTIVGQPHTAAAALDIIKTLYVETAPVRGQITDIEPEQIHLAIKESGVLEQHSESSIAHGKEVFVKTKKGVIKPRTPNQAQYLMNMVTHDITFGVGPAGTGKTYLAVAAAVDALERQEIRRILLTRPAVEAGEKLGFLPGDLSQKVDPYLRPLYDALFEMLGFERVEKLIERNVIEVAPLAYMRGRTLNDAFIILDESQNTTVEQMKMFLTRIGFNSRAVITGDVTQIDLPRGAKSGLRHAIEVLNEVDEISFNFFQADDVVRHPVVARIVNAYEKWEAQDQKERKEYEQRRREERENKLLEMQRAEMTLSHNNESNPS”, the protein production entry is “failed”.

With “KEMKQIQNEFKERMDEGELLNCMRCGFCLPSCPTYIESGFQETHSPRGRIALMKAVADGMIEPDEDVERSLSLCLGCRACEPVCPSGVKYGQLLEEARDIIHQNKKHSLGE”, the protein production result was “failed”.

Turning to “MQICDSYNQKNSLFNAMNRFIGAVNNMDQTVMVPSLLRDVPLDQEEEKEVTSFQDGDMYGSYVLLKSIRNDIEWGVLQAEERRKEKHGVTTTSLEVSRIEPNDKDLEKLFHYHLSGLHTVLAKLTRKANTLTNRYKQEIGIGGCGN”, the protein production result is listed as “failed”. Consider “MQEKGNISIHTENIFPIIKKFLYSDHEIFLRELVSNAVDATQKLKRLAALGEYPGELGDTKVTVSVNKEAGTITITDRGIGMTAEEIKKYINQIAFSGATEFIEKYKDKTDTNQIIGHFGLGFYSAFMVSSNVEINTLSYQPNSKAAHWICDGSTEFEIKLSDKAERGSEITLHIAEDSLEFLETSRIHSILDKYCRFLPVEIEFEGEIINNPSPLWTKQPSELKDEDYIAFYKELYPMSEDPLFWIHLNVDYPFSLTGVLYFPKLKKDFEFQRNKIQLYSRQVFITDEVKDIVPEFLMLLHGVIDSPDIPLNVSRSFLQADGNVKKINSHITKKVADKLNELFNNDRAGFEAKWDDIGMFVKYGMISEEKFYDKAKNFCLLKNTDNALSTIEEYEQKIKPIQTDKNDKLVYLYSNNAVAQDIFIQAAKKKQYDVLLLDSVIDSHFLGQLESKLEKVQFKRIDSESVDKLIEKDEPKLSLLTKEQETQAEELFKKVVNNGKVIIKLEHLATDDMPVTIVISEFMRRMKDMAATSGQSMFGGFELTHEVVVNTNHPLIAKAIAAPEAEGEQLIKQTYQLGLLSQGLLQGAELSAFIERNMNALVK”, for which the protein production result was “failed”. Take “MGMKYWSSKRRLYLTPVSFGFACSALLMLGTLSSYPDWLTCNPAPVVNQNDAVIYYFFRNIMMAVLFMSSIILYYFRQRIMHSWKAHVLTFTACILFTLTIIVLSWLYSSHSPWLSVNFIDDLSHTFTPLWQSIIGWLLMAVWFITLILLISLSKLRNIFWFSGAFFCSAYLFTLFQLLSTAGELDQTWYQARFFETLCTLFLILVLLVDVFILYRESNHKYVHSYQNSIRDPLTRLYNRSFFYDTLNQQLAKVNAQHPLSVLISDLDHFKRINDSYGHVAGDKVIQFAASVLESHSRVDDAAARIGGEEFALLLVNTGEKEAQAIAERIRLAVSAGESHLPERMTISMGVYTTYDNSVTAEACVQRADEAMYEAKNNGRNQVIVWHQQGG”: the protein production entry is listed as “failed”. With “MKKATMLTYLEEQLEKHLGDYEVGLDWDRKNHTIEVIVRLYAENNEQVAIDDVDGTLSEEEFIEFEDGLLFYNPQKSVVDDEEYLVTIPYEGKKGLRKAVLDGFIHYLKVVLDEGQSDLLDFLSDETAEVFELHWEPADFEAMIKKVAETEKEQWIAYPSY”, the protein production entry was “not failed”. For the sequence “MQEYIEFFKAHTLLSLAWVGLFVMLVVSVIKSSFSKIKNVTHQELTIMVNRQDAKVVDVRSNDDFRKGHIVGAVNVTLADIKNNQVSALEKFKGSPIILVCNAGMTSSQAAQLLSKQGFENLYNLKGGMGEWQAANMPVSKSKR”, the protein production result is given as “failed”.

Regarding “SLGAMFRAGTPMPPNLNSQGGGHYFIDRDGKAFRHILNFLRLGRLDLPRGYGETALLRAEADFYQIRPLLDALRELEASQGTPAPTAALLHADVDVSPRLVHFSARRGPHHYELSSVQVDTFRANLFCTDSECLGALRARFGVASGDRAEGSPHFHLEWAPRPVELPEVEYGRLGLQPLWTGGPGERREVVGTPSFLEEVLRVALEHGFRLDSVFPDPEDLLNSRSLRFVRH”, the protein production result is “not failed”.
